Assays:
CD28 (human) = CD28 (human) (UniProt P10747); test: flow cytometry, Jurkat cells (CD28)
CTLA4 (human) = test: flow cytometry, CHO cells stably expressing CTLA4
PD-L1 (human) = test: flow cytometry, CHO cells stably expressing PD-L1
human PD-1 (human) = human PD-1 (human) (UniProt Q15116)
Sequence of human PD-1 (human) (Q15116 25-288): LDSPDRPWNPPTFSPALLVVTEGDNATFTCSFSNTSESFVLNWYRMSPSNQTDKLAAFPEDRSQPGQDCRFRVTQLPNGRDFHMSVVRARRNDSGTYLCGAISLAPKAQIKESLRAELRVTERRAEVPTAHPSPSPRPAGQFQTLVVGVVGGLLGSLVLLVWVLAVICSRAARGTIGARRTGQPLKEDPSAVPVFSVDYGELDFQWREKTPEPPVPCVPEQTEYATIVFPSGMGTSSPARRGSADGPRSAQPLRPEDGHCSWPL

Sequence of PD-L1 (human) (chain, as listed by the source): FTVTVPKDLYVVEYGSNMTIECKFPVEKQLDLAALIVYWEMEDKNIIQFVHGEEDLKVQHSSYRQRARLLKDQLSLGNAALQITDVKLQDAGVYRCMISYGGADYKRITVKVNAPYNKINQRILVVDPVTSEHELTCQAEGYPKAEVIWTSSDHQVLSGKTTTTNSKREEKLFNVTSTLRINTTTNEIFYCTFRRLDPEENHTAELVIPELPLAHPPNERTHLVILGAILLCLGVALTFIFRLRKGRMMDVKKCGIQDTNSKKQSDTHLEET
Sequence of CTLA4 (human) (chain, as listed by the source): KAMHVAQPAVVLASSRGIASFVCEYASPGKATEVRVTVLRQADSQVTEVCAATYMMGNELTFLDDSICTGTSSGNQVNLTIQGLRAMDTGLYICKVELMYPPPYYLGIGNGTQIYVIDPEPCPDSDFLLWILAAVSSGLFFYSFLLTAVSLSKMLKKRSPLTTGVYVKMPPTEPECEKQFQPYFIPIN

Fold change to WT (CD28 (human)) [fold]	MFI at 33.3 nM (CD28 (human)) [MFI]	Fold change to WT CD80 (CTLA4 (human)) [fold]	MFI at 33.3 nM (CTLA4 (human)) [MFI]	Fold change to WT (PD-L1 (human)) [fold]	MFI at 33.3 nM (PD-L1 (human)) [MFI]	IFN gamma levels pg/mL (MLR) (human PD-1 (human)) [pg/mL]	Binder
0.05	366	0.01	2110	3.53	28000	–	CD80 variant Q33L/E35D/M47L/A71G/F92S IgV-Fc (Fc fusion) VIHVTKEVKEVATLSCGHNVSVEELAQTRIYWLKDKKMVLTMMSGDLNIWPEYKNRTIFDITNNLSIVILGLRPSDEGTYECVVLKYEKDASKREHLAEVT
0.04	268	0.02	3840	9.61	76400	–	CD80 variant H18Y/Y31H/E35D/M47V/A71G/L85Q IgV-Fc (Fc fusion) VIHVTKEVKEVATLSCGYNVSVEELAQTRIHWQKDKKMVLTMMSGDVNIWPEYKNRTIFDITNNLSIVILGLRPSDEGTYECVVQKYEKDAFKREHLAEVT
0.04	284	0.08	14000	9.82	78000	–	CD80 variant Q33L/E35D/M43V/M47I/A71G IgV-Fc (Fc fusion) VIHVTKEVKEVATLSCGHNVSVEELAQTRIYWLKDKKMVLTMVSGDINIWPEYKNRTIFDITNNLSIVILGLRPSDEGTYECVVLKYEKDAFKREHLAEVT
0.04	299	0.97	173000	15.3	122000	–	CD80 variant H18Y/E35D/V68M/L97Q IgV-Fc (Fc fusion) VIHVTKEVKEVATLSCGYNVSVEELAQTRIYWQKDKKMVLTMMSGDMNIWPEYKNRTIFDITNNLSIMILALRPSDEGTYECVVLKYEKDAFKREHQAEVT
0.04	323	0.43	77400	3.2	25400	–	CD80 variant V22A/R29H/E35D/D46E/M47I IgV-Fc (Fc fusion) VIHVTKEVKEVATLSCGHNVSAEELAQTHIYWQKDKKMVLTMMSGEINIWPEYKNRTIFDITNNLSIVILALRPSDEGTYECVVLKYEKDAFKREHLAEVT
0.04	339	1.34	239000	7.77	61700	–	CD80 variant E35D/M47V/A71G/L85M/L97Q IgV-Fc (Fc fusion) VIHVTKEVKEVATLSCGHNVSVEELAQTRIYWQKDKKMVLTMMSGDVNIWPEYKNRTIFDITNNLSIVILGLRPSDEGTYECVVMKYEKDAFKREHQAEVT
0.04	272	0.01	1080	3.65	29000	–	CD80 variant Q33L/E35D/M43I/L85Q/R94W IgV-Fc (Fc fusion) VIHVTKEVKEVATLSCGHNVSVEELAQTRIYWLKDKKMVLTMISGDMNIWPEYKNRTIFDITNNLSIVILALRPSDEGTYECVVQKYEKDAFKWEHLAEVT
0.05	371	1.71	305000	2.45	19500	–	CD80 variant E35D/D46E/M47V/L97Q IgV-Fc (Fc fusion) VIHVTKEVKEVATLSCGHNVSVEELAQTRIYWQKDKKMVLTMMSGEVNIWPEYKNRTIFDITNNLSIVILALRPSDEGTYECVVLKYEKDAFKREHQAEVT
0.04	279	0.01	1180	5.69	45200	–	CD80 variant Q33L/E35D/N48K/L85Q/L97Q IgV-Fc (Fc fusion) VIHVTKEVKEVATLSCGHNVSVEELAQTRIYWLKDKKMVLTMMSGDMKIWPEYKNRTIFDITNNLSIVILALRPSDEGTYECVVQKYEKDAFKREHQAEVT
0.03	264	0.02	3530	15.8	126000	–	CD80 variant Q33L/E35D/M47L/V68M/L85Q/E88D IgV-Fc (Fc fusion) VIHVTKEVKEVATLSCGHNVSVEELAQTRIYWLKDKKMVLTMMSGDLNIWPEYKNRTIFDITNNLSIMILALRPSDEGTYECVVQKYDKDAFKREHLAEVT
–	–	–	–	–	–	1620	variant PD-L2 IgV Q82R/V89D Fc fusion (Fc fusion) LFTVTVPKELYIIEHGSNVTLECNFDTGSHVNLGAITASLQKVENDTSPHRERATLLEEQLPLGKASFHIPQVQVRDEGQYRCIIIYGDAWDYKYLTLKVKA
–	–	–	–	–	–	1390	variant PD-L2 IgV H15Q/E44D/R76G/I85F Fc fusion (Fc fusion) LFTVTVPKELYIIEQGSNVTLECNFDTGSHVNLGAITASLQKVDNDTSPHRERATLLEEQLPLGKASFHIPQVQVGDEGQYQCIFIYGVAWDYKYLTLKVKA
–	–	–	–	–	–	936	variant PD-L2 IgV I13V/S39I/E44D/Q82R/V89D Fc fusion (Fc fusion) LFTVTVPKELYIVEHGSNVTLECNFDTGSHVNLGAITAILQKVDNDTSPHRERATLLEEQLPLGKASFHIPQVQVRDEGQYRCIIIYGDAWDYKYLTLKVKA
–	–	–	–	–	–	1310	variant PD-L2 IgV S39I/V89D Fc fusion (Fc fusion) LFTVTVPKELYIIEHGSNVTLECNFDTGSHVNLGAITAILQKVENDTSPHRERATLLEEQLPLGKASFHIPQVQVRDEGQYQCIIIYGDAWDYKYLTLKVKA
–	–	–	–	–	–	1290	variant PD-L2 IgV H15Q/N32D/S67L/V89D Fc fusion (Fc fusion) LFTVTVPKELYIIEQGSNVTLECNFDTGSHVDLGAITASLQKVENDTSPHRERATLLEEQLPLGKALFHIPQVQVRDEGQYQCIIIYGDAWDYKYLTLKVKA
–	–	–	–	–	–	1230	variant PD-L2 IgV H15Q/S39I/S67L/V89D Fc fusion (Fc fusion) LFTVTVPKELYIIEQGSNVTLECNFDTGSHVNLGAITAILQKVENDTSPHRERATLLEEQLPLGKALFHIPQVQVRDEGQYQCIIIYGDAWDYKYLTLKVKA

Fold change to WT (CD28 (human)) [fold]	MFI at 33.3 nM (CD28 (human)) [MFI]	Fold change to WT CD80 (CTLA4 (human)) [fold]	MFI at 33.3 nM (CTLA4 (human)) [MFI]	Fold change to WT (PD-L1 (human)) [fold]	MFI at 33.3 nM (PD-L1 (human)) [MFI]	IFN gamma levels pg/mL (MLR) (human PD-1 (human)) [pg/mL]	Binder
–	–	–	–	–	–	1510	variant PD-L2 IgV E59G/Q82R Fc fusion (Fc fusion) LFTVTVPKELYIIEHGSNVTLECNFDTGSHVNLGAITASLQKVENDTSPHRERATLLEGQLPLGKASFHIPQVQVRDEGQYRCIIIYGVAWDYKYLTLKVKA
–	–	–	–	–	–	1560	variant PD-L2 IgV E44D/V89D/W91R Fc fusion (Fc fusion) LFTVTVPKELYIIEHGSNVTLECNFDTGSHVNLGAITASLQKVDNDTSPHRERATLLEEQLPLGKASFHIPQVQVRDEGQYQCIIIYGDARDYKYLTLKVKA
–	–	–	–	–	–	1470	variant PD-L2 IgV I13V/H15Q/T47A/Q72H/R76G Fc fusion (Fc fusion) LFTVTVPKELYIVEQGSNVTLECNFDTGSHVNLGAITASLQKVENDASPHRERATLLEEQLPLGKASFHIPHVQVGDEGQYQCIIIYGVAWDYKYLTLKVKA
–	–	–	–	–	–	1850	variant PD-L2 IgV H15Q/C23S/I86T Fc fusion (Fc fusion) LFTVTVPKELYIIEQGSNVTLESNFDTGSHVNLGAITASLQKVENDTSPHRERATLLEEQLPLGKASFHIPQVQVRDEGQYQCIITYGVAWDYKYLTLKVKA
–	–	–	–	–	–	1230	variant PD-L2 IgV S67L/V89D Fc fusion (Fc fusion) LFTVTVPKELYIIEHGSNVTLECNFDTGSHVNLGAITASLQKVENDTSPHRERATLLEEQLPLGKALFHIPQVQVRDEGQYQCIIIYGDAWDYKYLTLKVKA
–	–	–	–	–	–	1430	variant PD-L2 IgV H15Q/S67L/R76G Fc fusion (Fc fusion) LFTVTVPKELYIIEQGSNVTLECNFDTGSHVNLGAITASLQKVENDTSPHRERATLLEEQLPLGKALFHIPQVQVGDEGQYQCIIIYGVAWDYKYLTLKVKA
–	–	–	–	–	–	1320	variant PD-L2 IgV H15Q/T47A/Q82R Fc fusion (Fc fusion) LFTVTVPKELYIIEQGSNVTLECNFDTGSHVNLGAITASLQKVENDASPHRERATLLEEQLPLGKASFHIPQVQVRDEGQYRCIIIYGVAWDYKYLTLKVKA
–	–	–	–	–	–	1380	variant PD-L2 IgV I13V/H15Q/E44D/V89D Fc fusion (Fc fusion) LFTVTVPKELYIVEQGSNVTLECNFDTGSHVNLGAITASLQKVDNDTSPHRERATLLEEQLPLGKASFHIPQVQVRDEGQYQCIIIYGDAWDYKYLTLKVKA
–	–	–	–	–	–	1420	variant PD-L2 IgV H15Q/S39I/I86T Fc fusion (Fc fusion) LFTVTVPKELYIIEQGSNVTLECNFDTGSHVNLGAITAILQKVENDTSPHRERATLLEEQLPLGKASFHIPQVQVRDEGQYQCIITYGVAWDYKYLTLKVKA
–	–	–	–	–	–	1020	variant PD-L2 IgV S67L/I86T Fc fusion (Fc fusion) LFTVTVPKELYIIEHGSNVTLECNFDTGSHVNLGAITASLQKVENDTSPHRERATLLEEQLPLGKALFHIPQVQVRDEGQYQCIITYGVAWDYKYLTLKVKA
–	–	–	–	–	–	1030	variant PD-L2 IgV H15Q/S67L/I86T Fc fusion (Fc fusion) LFTVTVPKELYIIEQGSNVTLECNFDTGSHVNLGAITASLQKVENDTSPHRERATLLEEQLPLGKALFHIPQVQVRDEGQYQCIITYGVAWDYKYLTLKVKA
–	–	–	–	–	–	1460	variant PD-L2 IgV H15Q/T47A/Q72H/R76G Fc fusion (Fc fusion) LFTVTVPKELYIIEQGSNVTLECNFDTGSHVNLGAITASLQKVENDASPHRERATLLEEQLPLGKASFHIPHVQVGDEGQYQCIIIYGVAWDYKYLTLKVKA
–	–	–	–	–	–	1950	variant PD-L2 IgV I13V/Q72H/R76G/I86T Fc fusion (Fc fusion) LFTVTVPKELYIVEHGSNVTLECNFDTGSHVNLGAITASLQKVENDTSPHRERATLLEEQLPLGKASFHIPHVQVGDEGQYQCIITYGVAWDYKYLTLKVKA
–	–	–	–	–	–	1730	variant PD-L2 IgV H15Q/R76G/I85F Fc fusion (Fc fusion) LFTVTVPKELYIIEQGSNVTLECNFDTGSHVNLGAITASLQKVENDTSPHRERATLLEEQLPLGKASFHIPQVQVGDEGQYQCIFIYGVAWDYKYLTLKVKA
–	–	–	–	–	–	868	variant PD-L2 IgV I13V/S67L/V89D Fc fusion (Fc fusion) LFTVTVPKELYIVEHGSNVTLECNFDTGSHVNLGAITASLQKVENDTSPHRERATLLEEQLPLGKALFHIPQVQVRDEGQYQCIIIYGDAWDYKYLTLKVKA

From patent US20250163127A1
